{
  "source": "a protein production outcome set (Wang et al. 2014)",
  "data": [
    {"experiment": "label from the status in PepcDB records", "values": [
      {"sequence": "MDALLILGGLLLMVAGYIWVIVLAFGTGLLWGYGSLFPPVALAYIGVHWRTARKGVGLAALGCIPLVVGLALLASHDAARLEAILSLRWLKPEARPPAELAIALSGEFNGKPFAPQSGELIGGVLSLRQGHDFYAQRELQIRLPAQPLGALRLDVLPEDGGALPEVELSWLQPDQDLPEARRLLRGYTLHLDLRPKAPNRLEGEFHLSLPSDYRTTLSGHVELYTDRLRYRHGKVDLGYDSDDTLALVLRDYLQRRFASRDVSLVRAPSWRAASHARPLRIEALVAGQAQVLELTLEKNARREWTVRGDAFPALPAEPATVAAAAPPEPQALPAPGNATLDLELVQVEPQRYSQRLVKATTVRGRIAEGRFTGLDSEGRLVIRREMPGAGEASYLLRPAEIARLELLER", "protein production": "failed"},
      {"sequence": "MDAREWAMLIALSLLWGGSFFFIGVAVKELPPVTIVTLRVSLAAVALLVVCRIMGLRLPREWAVWRAFFGMGLLNNIIPFCLIVWGQTQIASGLASILNATTPLFTVIVAHFLTADEKMTGNKLAGVLIGFVGVATMIGPAAFGGSSGLWGQIAILGAAISYSFAGIFGRRFKAMGVPPLMTATGQISSSTLMLIPAALLIDKPWTLAMPGLGTWGALIGIALLSTALAYLIFFRILASAGATNLALVTFLIPVSAILLGSLILGEQLEIKHFAGMAMIAAGLAAIDGRLPVKLRSLLRNAPA", "protein production": "failed"},
      {"sequence": "MDARFLYPLESCKIIHLLRHGQALHNVEAEKDRNALLSPHLFDAPLTDHGHQQVENLRERVVSSGLLKRVELVVTSPLFRTMQTAVGVFGNEYKQSSMTSSPPILALEVARDRNGVRPPDMRRNVSEYQTLFPTIDFSQIESEEDNLWRPDVRESEEEILARGLEFMKWLWKRPEKEVAVVSHGIVLQHMLYVFANDCDLSIRHELCKRFANCEIRTVVIVDKGMASSTEN", "protein production": "failed"},
      {"sequence": "MDATISVVCYKSKTLSNGEHPLMLRISKDGKKKYQSLGISVNPKFWDFQKNKPKPKCPNLEYLQKIILDKKLELQKKMLEIKSDQKEYSAATLIEANEKLQVAKNVDCFYKEIIAQCEINNKCGNRLVYLNSYNSLKRFTNGKLEIPFNTINVAWLEKYEKWLRSNGNKETTISLMFRTLRSTYNKAIKERCAHLSDYPFQEYKISKFDTSTQKRAIAKTDMLKFTETSQPIGQKKYVELSKDIFIFSYLCGGINFTDIANLTQENIVNGRLHYIRQKTGKLIKIGIPQEAMQIIKKYTDESNGYLFPILNVKVHKTALQKQNRIHKIRGKVNDILKTLGKRLGIEANITTYVARHSFASVLKKSGVNIALISEALGHSDLATTQIYLDSFDNEQVDEAMKNLL", "protein production": "failed"},
      {"sequence": "MDDIFTQCREGNAVAVRLWLDNTENDLNQGDDHGFSPLHWACREGRSAVVEMLIMRGARINVMNRGDDTPLHLAASHGHRDIVQKLLQYKADINAVNEHGNVPLHYACFWGQDQVAEDLVANGALVSICNKYGEMPVDKAKAPLRELLRERAEKMGQNLNRIPYKDTFWKGTTRTRPRNGTLNKHSGIDFKQLNFLTKLNENHSGELWKGRWQGNDIVVKVLKVRDWSTRKSRDFNEECPRLRIFSHPNVLPVLGACQSPPAPHPTLITHWMPYGSLYNVLHEGTNFVVDQSQAVKFALDMARGMAFLHTLEPLIPRHALNSRSVMIDEDMTARISMADVKFSFQCPGRMYAPAWVAPEALQKKPEDTNRRSADMWSFAVLLWELVTREVPFADLSNMEIGMKVALEGLRPTIPPGISPHVCKLMKICMNEDPAKRPKFDMIVPILEKMQDK", "protein production": "failed"},
      {"sequence": "MDDPFASLEPLAVAPSGPEGVRAQFDQMEDIPPPRPRQPPPAQEDPVEIEVTEDGVARAFTEKYGGTLRFDHDAGRWYHWQEDHWQADTTSRAFEYCRRLARLASEGAKHSLLSTARKASFAGGVERLARADPAHAVTQEAWDRDPWLVACPGETVDLRTGRSAVPRPEDGITRRVAVAPAAQETCPTWWQFLEDATGADSSVMRFLQQWAGYSLTGITREHTLVFLYGDGGNGKSVFINTLTGLLGDYAATAGMETFTASKSDRHPTDLAMLAGARLVAASETEEGRAWAESRIKQMTGGDRITARFMRRDFFTYTPQFKLTLVGNHRPALANVKPVEPWALVVPAELETVAQQVLAEIAAAAVSDVNPFSGTLELIVEPGLTSATGWYLIGNPALHDGLAHAFLDGQSAPRIETRAGWNTLGMEFRLTWAVDAKFIGTASWFRNPGASGCPRCRPRNAQRQGVALLCLARRSEVLDRLEHHHHHH", "protein production": "failed"},
      {"sequence": "MDDSMTSIKVHCLVSCFCEIIKRRSDIDFRPFYFGLWDGDFDITEGGIISYHSENINHDHYLLWYEKLYGMKVNEWYDHAKDKDSNVETFLQLVENKPENRYVIVMVDMSLLPERENKFHQKPFPHYLMISETEKEEEWFMLDPDFRWEGNMEREKVLYSVQDNPFGGGYFIDVEEIQEPTAEMVASYFIETFKRNDNELTMELKNLIIKMANEEEGYLLSGLVAAVKQIPVLAIRKYSYEHAFAYFRETLQYSEQEFDYWCDRVEDIVQGFTNVQYRAIKMAMTNNKGMLLSIVEKLDEMNAIELQIKTELERQFLSWKEMKSNESVLVF", "protein production": "failed"},
      {"sequence": "MDDVLRRNPLFAALDDEQSAELRASMSEVTLARGDTLFHEGDPGDRLYVVTEGKVKLHRTSPDGRENMLAVVGPSELIGELSLFDPGPRTATGTALTEVKLLALGHGDLQPWLNVRPEVATALLRAVARRLRKTNDAMSDLVFSDVPGRVARALLDLSRRFGVQSEEGIHVVHDLTQEELAQLVGASRETVNKALADFAQRGWLRLEARAVILLDVERLAKRSR", "protein production": "failed"},
      {"sequence": "MDEFDYVRRKLIERILHLTEKQPVVRPLPGLTVGRRESPTEPSTYILPPSICIAVQGAKRVLIGEEYYVYDVENFLLNSFDVPVVAQVIEASKEKPYIGMTWEIDMEILMEIVVEQKLNTRPITSSRGTSLGKVTHQLLDAFRRMLELLDEPEHISALLPVIKKEIIYRLLVSEQGPRL", "protein production": "failed"},
      {"sequence": "MDEKLVKEVIFSFREVQRKTHHVLAEEAANREITTTQLLAIRELQKESDLTLGELAERMKLGKSTVSGIVDRLVKAGFLKRTRNESNRRALSLELTEKGATKAAETYHVFFNRLEPILEIGEERLKEMLEMHQEIITILEREGARD", "protein production": "failed"},
      {"sequence": "MDEKRLKILEAAMEEFTEKGYQAASTNKICAKAGVSKGLIFHYFGSKEKLYIAAVSYAVDFATNEVSLEEKRWSDFVEMAIWSTKMKLDFNRKYPAIFGLIMQAYGNPPPELKGKLDGFFDKAIERSEAQMNQVLNEMQLKKDVNMDAARKVMEALFQHITEKSTVFLQRHPNATMEDFIPLANDFTEMMRIVEFGICEEKKDSGE", "protein production": "failed"},
      {"sequence": "MDENSLIYGLELQARALTPQYGESNDVCFFIATNSLKPTNQVHLIQYEEEQGSVQSKVFEHALGEVWKLNSCPRNPRLLASVYNVQKGAQVLTKAALFTLPENLNPDPEQLKSEYLPWEQVEVLDTEALGERVKTIEFHPNQDTLACVVDNKVAVMQRAESSTRVVAEVPASGSSSGSAKHTQHFTSGKWSHHHQGHQFLTLQDGNLSAYDVRDTQHCAWSINDAHGQMVRDLDCNPNKQCHLVTGGDDGYLRIWDCRMPKAPVFERSDHSHWVWCVRFNTFHDQLILSSSSDCKVLLTCAGSVSSETQVQAGLDESNFSGADAEERHKLLPDGLLQTFDQHEDSVYCAEWSNVDPWIFASLSYDGRVIISKVPKQYKYQIIF", "protein production": "failed"},
      {"sequence": "MDEQVIFTTNTSGTIASVHSFEQINLRQCSTQSRNSCVQVGNKYLFIAQAQKALINVYNLSGSFKRESVEQRLPLPEILKCLEVVENDGVQYDRIQGVNHNLPDFNLPYLLLGSTESGKLYIWELNSGILLNVKPMAHYQSITKIKSILNGKYIITSGNDSRVIIWQTVDLVSASNDDPKPLCILHDHTLPVTDFQVSSSQGKFLSCTDTKLFTVSQDATIRCYDLSLIGSKKKQKANENDVSIGKTPVLLATFTTPYSIKSIVLDPADRACYIGTAEGCFSLNLFYKLKGNAIVNLLQSAGVNTVQKGRVFSLVQRNSLTGGENEDLDALYAMGQLVCENVLNSNVSCLEISMDGTLLLIGDTEGKVSIAEIYSKQIIRTIQTLTTSQDSVGEVTNLLTNPYRLERGNLLFEGESKGKQPSNNNGHNFMKIPNLQRVIFDGKNKGHLHDIWYQIGEPEAETDPNLALPLNDFNAYLEQVKTQESIFSHIGKVSSNVKVIDNKIDATSSLDSNAAKDEEITELKTNIEALTHAYKELRDMHEKLYEEHQQMLDKQ", "protein production": "failed"},
      {"sequence": "MDERPEGGDAQGAREGRDARGDGEPDEVVSGELLPYDDIAGVAAASVGLHALADDLAGERRELAVELRKFFVVLRLSVRRYAALRPYSPSSVSRYLSGDLVAPDHFVATLMDDVGRELGRPLSAQARGRVTGLQRAALRSSNSRAWKVQELEDRLAAAHQDAQVARTQADAVATLLHAERQRVAGVEEERQELARTLEAHQATSGAELDVLRAQQHRVRAERDTLRRRVADLEAALAAAEHRVAEAEQRCADLEHELLTADAAAAAEESAAAEQERARQQAELGSLRDEVARLRVAAERVPETSPARGTQAPRTSVHGAEADATGPVSGDRSAAAPADVPGAASSVTIVYAGFNRAWAAWIGDRLERWGVRAVLMLWDVPADIPLIDLLRDLKLAEGRILIVVSEWYFQLGLRSHDEWNEALREVVAPDPSRFVAVSVTNAPVPSAAAVLAAVDLTDTGADEAERRLLARLVGLPGDSLPAASGGERRGPRFPAATPEVWGGVPRRNTRFTGRESLLSDAYSLLKGAEPGAGVLTLHGMSGVGKTQLAVEYVYRFSSEYDVVWWVGADNRGVFRQTLAELASRLGLSTGAEYGERLRAVRDSLRRGDPYARWLLILDGADDPDQIEDLVPTGPGHVLITSRNLKWGEHNSELLEVPVYDRPESVAFIRRRAPRLAEADADRLAEALEDLPLLLDQTAGWLNDSDLSVGEYIALLDGGIDQDVVKVSADFPIAFRTAWSILLNKVRETVPEAVDLLRLCTFFAPGLIPVRFLREMPHNELPETITGLLNDRLLWNKAIHQLRQYSVVRLESHEAATDGSTSSGESLYLHRMVHQIVRNDMPEDERHEFAAVVRRALASADPGRPTDTRHWGEYAEIVPHLKYADVLDSPDPGVQRLVLNCLGYLHLSGRYAAGVELAERALEAWRELLGDTHPVIWELTAHHTNLLRSTGDYRRTEAVDRAAVEHLREERGELDPDHLRAAAGLAADLRGLGRYGEALELTRRLLTSCLDLLGEQDSRTLDAQHDLGFSLRLLGRYEEALDVDRRTLEARRALLSGRHPGILLSETSCATDLRLLGHYAEAESAQATNARAQRAVMGSDNPQTLRAEHNLALCQYRAGDREKAGKLFSRVLERYERTLGETDPLTLAAAVSQSCFAREYGDIDQAGAASESLIARYEAMLTDGHPFTIGARANHVLLLRQVGARDEARFGAEKALTAMAAAMGESHPWTLGCAINAAAVRQFIGDVESAAELSGSTVARATDALGRTHPLTLSARVAQAADLRGLREHRRAEEIEQEVLADLAATLGSRHVHTVSARSRNRPYWDFEPQPT", "protein production": "failed"},
      {"sequence": "MDESCERVKAIYNEHEYLEAYSRHTDLRVDVDPKLAIGGMWEEIGKLQFEYLTKKGLQCHHELLDIGCGTLRGGRHFIKYLNSSNYYGVDISFKAIESAKELVVEEKLSDKKPQLLLDKNKSLNFNCYLGKTFDFIFAQSVFTHLKPEHISECFENIGQIMNEDSAFYFTYNNSVEYREVGFKNFYYPFDFFENLVERNGFKLKECKSEYAHPRGQIMVEIVKR", "protein production": "failed"},
      {"sequence": "MDESVKSLMLPPPPPLLPPSQGYGSRKIDGDSITNKQIKKFWRQKQIIEEDHLYSAIKAAARVRARNLSDEDYKRFEESLDMEDLETEDHQGLKDWWTKSKYAYLNQPALGSADSLKRKRFSTYTPNCFSFKPCNPLYATSLNVF", "protein production": "failed"},
      {"sequence": "MDETPIFKIKKLTIAENDRSEYIRYAEKNMHDSIPAEEGTLLIGSGHDDAHGEDNYEIEVFRNKGAEDLHIAGSHADDFVETVNKIATKQKVIDLHPEVITTKAQRALNSYADNFVMRLIKVEVKDADAEKFSHAVKKEMTTSMASEPGMEIMMSGTNIDNPNEWYFIEVYANDEAYDIHVKTPHYKEYIEETDGMVKSRDVKTLVRDTLATQGAIVLD", "protein production": "not failed"}
    ]}
  ]
}
